PMC7615710

Columns and labels:
PP1α (Homo sapiens) = PP1α (Homo sapiens) (UniProt P62136); settings: cited from earlier work
[1] = target: Bin1 SH3 domain (513-593) (human) (UniProt O00499); assay: ITC; 450 or 300 uM NS5A PRR peptide (syringe) titrated to 30 uM ASPP CTD or SH3 domain (cell), 12 °C, 25 mM HEPES pH 7.5, 150 mM NaCl, 500 uM TCEP; 25 steps of 10 ul; AB hetero association model (SEDPHAT)
Chain of Bin1 SH3 domain (513-593) (human) (O00499 513-593): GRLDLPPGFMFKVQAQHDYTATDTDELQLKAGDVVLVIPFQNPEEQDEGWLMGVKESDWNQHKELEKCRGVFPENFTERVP

Chain of PP1α (Homo sapiens) (P62136 2-330): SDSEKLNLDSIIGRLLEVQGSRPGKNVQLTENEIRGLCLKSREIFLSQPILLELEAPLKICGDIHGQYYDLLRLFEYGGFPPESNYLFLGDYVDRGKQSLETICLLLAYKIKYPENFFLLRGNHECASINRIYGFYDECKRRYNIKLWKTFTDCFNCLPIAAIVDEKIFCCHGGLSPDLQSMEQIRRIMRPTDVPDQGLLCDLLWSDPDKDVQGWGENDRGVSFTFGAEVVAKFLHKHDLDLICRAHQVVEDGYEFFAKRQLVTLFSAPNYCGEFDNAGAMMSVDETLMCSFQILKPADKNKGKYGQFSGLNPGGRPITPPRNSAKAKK
Chain of ASPP2 SH3 (Q13625 1054-1122): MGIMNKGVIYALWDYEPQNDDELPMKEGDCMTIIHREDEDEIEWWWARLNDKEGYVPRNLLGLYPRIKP

| Substance | Kd (PP1α (Homo sapiens)) [µM] | Kd [1] [µM] |
| --- | --- | --- |
| ASPP2 SH3 (from UniProt Q13625) | 0.14 |  |
| HCV [1a.1] NS5A PRR peptide (peptide; other documents disagree on this pair) |  | 0.0303 |
